Assay results reported in a protein production outcome set (Wang et al. 2014).

Assay: label from the status in PepcDB records
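Also: failed if final PepcDB status was selected cloned or expressed and not failed if soluble or beyond.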

Sequence: QKRPLIMIGGSSSTRTDFDDIVRSLNEQQHHPLITLTVKANQKLAFKEKRVENTNLNDALIVIFFEDSTDSTENIMTQTNGLAKAIRYLQRHQHLTTANALGYSNGGLIWSRYLAGLSSSKPLAVHDLMLIGTPFLGTDAAH
- protein production: failed

Sequence: MTLTQLEIFALVAEMQGFTAAAARLGISQSGVSHAVRELERELGVELLQRRQGRVELTDIGRQLLPRASGMLGLAEAMRQEAADARGLRRGTLRIGSFGPTSSMRLLPALLARYRQQYPGIEVHIDEGPDEQVLQWLLERRVDIAFAVLPDPRFVCCPLVEDQMVAVLPAGHRLADRPRVTLAELCGEPFALSGAGSAELVMRLFQAARLQPNIRYRCGQLLSTLDTVARGDAVAIVAELSLPSRPHAEGYVGKPLQPAVRRQVGLALLDGDQASPAARAFLQIADRLRIEGGLAGLNARENGAA
- protein production: not failed

Sequence: MESSPLISAGLPIALFIIMIGIGMTLTLRDFRQVAVYPKGMIVGTFAQILLMPVVAFGLAWLFGVSPAIAVGLVIIAACPGGTTSNLFVLLARGNIALSIVLTVSASLITILTLPLFTNMALQHFMGTEESISLPVGKTIAMLVVIVLLPVAIGMLVRTRKPELARKAESLVSIFGGIVLAVLVVALLYGVRDQMWDLLKQAGPSTIALNVAGIALGLLAGRVAGLTQRESLAVAVELGVKNGTIGLMVTLTLLESSTMSIPAAVYGVLMFPIGFLLAMYGRKVIPKSNVAHAAGEA
- protein production: failed

Sequence: MRKLFIPLLLFSALEANEKNGFFIEAGFETGLLEGTQTQEKRHTTTKNTYATYNYLPTDTILKRAANLFTNAEAISKLKFSSLSPVRVLYMYNGQLTIENFLPYNLSNVKLSFTDAQGNVIDLGVIETIPKHSKIVLPGEAFDSLKIDPYTLFLPKIEATSTSVSDANTQRVFETLNKIKTDLVVNYRNENKFKDHENHWEAFTPQTAEEFTNLMLNMIAVLDSQSWGDAILNAPFEFTNKDGGEECDTSKENECVNPGTNGRVNSKVDQQYVLNKQDIVNKFRNKADLDVVILKDSGVVGLGSDITPSNNDDGKHYGQLGVVASALDPKKLFGDNLKTINLEDLRTILHEFSHTKGYTHNGNMTYQRVPVMKDGQVEKDSNGKPKDSDGLPYNVCSLYGGQGQSAFPSNYPNSIYHNCADVPAGFLGVTAAVWQQLINQNALPINYANLSTQTNYNLNASLNTQDLANSMLSTIQKTFVTSSVTNHYSSSASQSFRSPILGVNAKIGYQNYFNDFIGLAYYGIIKYNYAKAINQKVQQLSYGGGIDLLLDFITTYSNKNSPTGIQTKRNFSSSFGIFGGLRGLYNSYYVLNKVKGSGNLDVATGLNYRYKHSKYSVGISIPLIQRKASVVSNGGDYTNSFVFNEGASHFKVFFNYGWVF
- protein production: failed

Sequence: MSQKIVILGSGESGVGAALLSKAKGYDTFVSDSSMITEAFIAELQQAGIAFEQGVHSEEKILSAQLIVKSPGIPEKAPIMKLIRSKAIEVISEIEFAYRHIHPGAKFIAITGSNGKTTTTLLTHHILAQLGYSVGLGGNIGTSLARQIIHEKKDVYVLELSSFQLDDMYTFKADVAVLLNITPDHLDRYEYKFENYTASKFRIFQNLTPADYYITYSEDSVIESYKKDHPVDARYVPVSLKQLYSAGAYSDEKTIQIHALDDTVVTCNTEEFPLQGKHNYINIMAALNAAVSIGADIHKSIASIKSFRNAPHRLEFVGSIYGVKFVNDSKATNVDSVWYALDSMKTPVVLIVGGVDKGNDYSQIEALVKEKVHTVVALGKDNSKVLSGFASMVSEIKEAHSMVEAIRIAHDSAKKGDTVLLSPACASFDLFKNYEDRGTQFRNLVIELAG
- protein production: failed

Sequence: MSKIAIIVDSSSYIPKDQLKKHHIYVIDNPIIFGETIYHEFNWPVNADFYQQMATTPIQPTTSQPAPGDFEAAFQAAKDDGYKQALVITLSSGFSGTFLNTSAIASSHSDIDIHVWDSRIACLGAGNQALLAAYLAEKGIGIDEILSKLQILRSRTGVFFVVDSISHLQRTGRLSGGQALVAGLLNIKPILNINTNKQGKIDAVAKTRKMSGAWRYIEKHFAKIADNYQRAGWPMRVSILDADNPELADAWLKRAEKRWPEIIFERGIIGPLVGVHIGGKAVGLIWAEDYKRLED
- protein production: failed

Sequence: MNARVHQPVHTAQHAPSYYAATLNRRIECPPLAGEEQADVCVVGGGFSGVNTALELAQRGFSVVLLEAHQIGWGASGRNGGQLIRGVGHDVEQFLPVIGADGVKALKLMGLEAVEIVRRRVEQYAIDCDLRWGYCDLANKPGDYQGFREDMEELQALGYRHEMRLVPAAEMRSVIGSDRYVGGLVDMGSGHLHPLNLVLGEAAAAQSLGVRLFERSTVMRIDYGTEVQVHTATGKVRAKTLVLGCNAYMNDLNPLLGGKVLPAGSYVIATEPLDEKLARQLLPQNMAVCDQRVALDYYRLSADNRLLFGGACHYSGRDPSDIAAYMRPKMLEVFPQLANVRIDYQWGGMIGIGANRLPQIGRLPGQPNVYFAQAYSGHGVNATHLAGQLLAEAIGGQQSDGFDLFAKVPHITFPGGKLLRSPLLALGMAWY
- protein production: failed

Sequence: MSENMVNLPDSLYEDYSKLKLTSPSNASSSSSAPPPRLSVVAHPTVEMIIQWVCDIHKPKSYMSDFALHNLAYHRNDFEFLPSLLWESKNTVYIMLQEVFEAYRHLAGHISLRLFPHPLNPLRVYNVFLLFQSMACHPDTSRQFLRAKMPNYFYPLMDTGLIDKSDECMRLAALGVIAHMLKASEDGAVNRYLMESGVVGFCVKPIEFGSTETKKVALYILDKIMSTDQGLYYCCVLADRFYVIDELLKKVLFYLSNMVRPPSSLFSLVTGCYVKLSQNSRARNGIRRYTPFLLFDGTFSRLYAEDPVAANNRIQLLQNLDN
- protein production: failed

Sequence: MMLSATQPLSEKLPAHGCRHVAIIMDGNGRWAKKQGKIRAFGHKAGAKSVRRAVSFAANNGIEALTLYAFSSENWNRPAQEVSALMELFVWALDSEVKSLHRHNVRLRIIGDTSRFNSRLQERIRKSEALTAGNTGLTLNIAANYGGRWDIVQGVRQLAEKVQQGNLQPDQIDEEMLNQHVCMHELAPVDLVIRTGGEHRISNFLLWQIAYAELYFTDVLWPDFDEQDFEGALNAFANRERRFGGTEPGDETA
- protein production: not failed

Sequence: SYMYDRDGSLVSEIVSDHENRVLVPFNKIPEEVKQIFLTSEDRHFYEHKGFDFMGMVPPTASNVKDKKIDQGASTITQQLSRNLYLSHERSFSRKLTELAYSYQLEKKYTKNEILEAYLNTIYFNNGVYGVGSAAQFYFSKPLKSLTVGEMAFICAIPNNPTLYDPLKHF
- protein production: failed

Sequence: MFVHLSVELMQHLSAAALAFTVVTYVVLDGTDLGVGMLFAANRSDADRHLMAYSILPVWDGNETWLVLGGGSLLAMFPSAYAIFLNATYVPLVVMLLALICRGVALEYRDQLGTDRRRRVLDVVFMVASLLATFCQGVVAGTYLAGVAHRAGQYAGNGREWLQPFPLFCGVALVVGYLLLGACWLVWRSEGQLQQRARHQARVLGIVLGALLTLGVVWLARLTPIYAQRLGDAHISVPLGTSVLGLMVAMYLLMRSRHAFLPLFAVLGVVVATYAGVLAIVYPMVLPPDITLAQAASPPASQGVMLLAFAVLVPCTLAYSSYGFYVFRGKVKPRGHAAE
- protein production: failed

Sequence: MAAMQWCGAMTRRIMMTQRTSAALNCSARYSSLSPACAAPAVSEMDLCGRGDKKTKKGKRFKGSYGNSRGKKQKMIERIKDKLELPRSTPWPLPFKLI
- protein production: not failed

Sequence: MRTLKVQALWDGEAGVWVAESDDVPGLATEAATLEELLAKLAVMVPELLEENGVALELPVELRLEATRPLVFS
- protein production: not failed

Sequence: MPIIGTKELITCDNTDFIHSGNDADRSGFILSVPVFGQDGSLRGSVSAIMLTSALRKLLPGSDYVIVNSGYGFESDQHKMSTALAADSRAFTAADPNLIYSEVIPLSLNDPRSAWRLWAGFPNSRFDNNMDVQSVRQFELAGYAAVAVVTLLALACWYAIGRTMTMQVEAAETLERRVEQRTAQIQHLATHDILTGLPNRGLLADTMDEALRSLRDDEKLAVHCVDLDRFKPVNDTLGHPIGDQLLGAVAKRLKHHAGETAMVARIGGDEFVILQLLLDGNDEAGVLASRVIHALSDEFSIQGHKINIGGSIGIAVFPDDGQNSETLIRNADLALYKAKMEGRGTCRSFEPGMDARLQERRQLESELALGVKKEQFVLHYQPLHDAKTSQLTGFEALVRWNHPRLGLLAPSEFIQLAEETGAIDALGEWIMRRACADAAKWPQPVKVAVNLSPAQFKQQGLSLQVAAALAASGLLPSRLELEITESVLLANNENTLNTLYSLRDLGISIAMDDFGTGYSSLSYLRSFPFNRIKIDRSFVSLMCESSESRAIVKAVAELGTTLGMTTTAEGVETEDQYRLVKENGCTDVQGWYFGRPMPASELHTLFEQPEALTA
- protein production: failed

Sequence: MPTLIVLIGPTGVGKTELSLRLAENFHTSIVSADSRQLYAELKIGTAAPTPDQLKRVPHYLVGTLHLTDYYSAAQYEQEAMEILHQLFTEHEVVVLTGGSMMYVDAICKGIDDIPTVDAETRQVMLQKYEEEGLEQLCAELRLLDPDYYRIVDLKNPKRVIHALEICYMTGKTYTSFRTQQKKERPFRILKIGLTRDREELYDRINRRVDQMMEEGLLDEVRSVLSYRHLNSLNTVGYKELFKYLDGEWELPFAIEKIKQNSRIYSRKQMTWFKRDEEIRWFHPEQETEILEYLRLQNLTHLPSLDTFLEHHHHHH
- protein production: not failed

Sequence: MSYSVTLTGPGPWGFRLQGGKDFNMPLTISRITPGSKAAQSQLSQGDLVVAIDGVNTDTMTHLEAQNKIKSASYNLSLTLQKSKRPIPISTTAPPIQSPLPVIPHQKVVANSPANADYQERFNPSVLKDSALSTHKPIEVKGLGGKATIIHAQYNTPISMYSQDAIMDAIAGQAQAQGSDFSGASPLASLPVKDLAVDSASPVYQAVIKTQSKPEDEADEWARRSSNLQSRSFRILAQMTGTEYMQDPDEEALRRSSTPIEHAPVCTSQATSPLLPASAPSPAAASPIAASPTLATAAAAHAVAASAAGPASSPVENPRPQASAYSPAAATSPAPAAHTSYSEGPAAPAPKPRVVTTASIRPSVYQPVPASPYSPSPGANYSPTPYTPSPAPAYTPSPAPTYTPSPAPTYSPSPAPAYTPSPAPNYNPTPSAAYSGGPSESASRPPWVTDDSFSQKFAPGKSTTSVSKQTLPRGAPAYNPTGPQVTPLARGTFQRAERFPASSRTPLCGHCNNVIRGPFLVAMGRSWHPEEFNCAYCKTSLADVCFVEEQNNVYCERCYEQFFAPICAKCNTKIMGEVMHALRQTWHTTCFICAACKKPFGNSLFHMEDGEPYCEKDYINLFSTKCHGCDFPVEAGDKFIEALGHTWHDTCFICAVCHVNLEGQPFYSKKDKPLCKKHAHAINV
- protein production: failed

Sequence: MEKASSPEKWLAKVSVTLTKAKPDEIWPLFTDFFNLHKWLPTLATCHGVHGNNGEQGCIRFCSGFSIGSNGVDSAARWSKEKLVAVNPVERVMRYEIVESNTGFESYVSTVKILPRGEDGCVIEWSFTVDPVRGLSLENLVKKYEKALEIITKNMEEDALRRRESSS
- protein production: failed

Sequence: KALGSKEIPKGAENCLEGLIFVITGVLESIERDEAKSLIERYGGKVTGNVSKKTNYLVMGRDSGQSKSDKAAALGTKIIDEDGLLNLIRTMPGKKSKYEIAVETE
- protein production: not failed

Sequence: MEISEYFKDWMELYKKNAIDEMTYKGYEQTLKYLKTYMPNVLISEITASSYQRALNKFAETHAKASTKGFHTRVRASIQPLIEEGRLQKDFTTRAVVKGLEHHHHHH
- protein production: not failed
